Stoichiometry N data for one substance are collected here from publication PMC5095587.

The target of this experiment is ferredoxin isoform 2 from Arabidopsis thaliana (Arabidopsis thaliana) (UniProt P16972). Put plainly: NMR titration; 15N HSQC of labelled ferredoxin with purified FusA added at varying stoichiometry up to 1:1; buffer with 0.1% LDAO, sodium phosphate; 600 MHz.

Turning to “FusA_(1043) Δ20 (FusA from P. atrosepticum SCRI1043 lacking the 20 amino-acid N-terminal signal sequence) (from UniProt Q6CZW5 21-704) (receptor)”, the stoichiometry N came out at 1.

One may read the stoichiometry N as a count of units in the complex or per binding partner.
